The text below walks through data of the RNAGym collection of RNA variant scans (doi:10.1073/pnas.2313332121).

The labels stand for the following.
B1: TPR t1 (parent)
chain: GACCAAUCUGCCCUCAGAGCUCGAGAACAUCUUCGGAUGCAGAGGAGGCAGGCUUCGGUGGCGCGAUAGCGCCAACGUCCUCAACCUCCAAUGCAUCCCACCACAUGAUGAUGCCUGAAGAGCCUUGGUUUUUUG

This series covers variants of B1. The series can be described thus: polymerase ribozyme fitness, log enrichment relative to wild type (log ratio); higher = more active; in vitro selection for triplet polymerase activity. The method, boiled down: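 Mutant libraries for each subunit of a heterodimeric triplet polymerase ribozyme were made by PCR and then transcribed. Each library underwent one round of in vitro selection in triplicate: annealing with a biotinylated primer, the partner subunit and triplets, frozen incubation at −7 °C, gel excision of extended constructs, streptavidin-bead capture and RT-PCR. Input and output libraries were Illumina-sequenced, and only genotypes with ≥10 input reads and ≥1 read per output were kept. Fitness is the logarithm, base 2, of genotype enrichment over wild-type enrichment, computed from inverse-variance-weighted replicate averages.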
As to G25A C62A C86U C102U G120C, the “polymerase ribozyme fitness (log ratio)” value was -7.36.

For the variant A24G U38G C56A C80A, the “polymerase ribozyme fitness (log ratio)” value is -5.92. C22G U38G U87A C98G U112C C114A: the “polymerase ribozyme fitness (log ratio)” value is -6.53. Take A26C C53U C56G: the “polymerase ribozyme fitness (log ratio)” value was -5.02. Regarding G25C G69U, the “polymerase ribozyme fitness (log ratio)” value was -4.39. Turning to C22U C56A G69U U78C, the “polymerase ribozyme fitness (log ratio)” value was -3.41. To A27G C76U C89U G93A belongs -3.34.

C22U G45U G48C C102A C124G G128A: the “polymerase ribozyme fitness (log ratio)” value was -6.17. To A26U C73U U81A belongs -3.86. In the case of G23C U30C G42U G69A U78G A105C C115G it was -7.04; in that of A26U A66G U112G, -5.69; in that of A24G G36U C56U C101U, -3.37.

As for A24G C53U C62U C89U G113A, the “polymerase ribozyme fitness (log ratio)” value is -5.19. C22U C34U A83C C124G: the “polymerase ribozyme fitness (log ratio)” value is -5.96. In the case of A24G C56G G113A G120A G128A it was -7.42. Take A26G A27U G36A U112G U129G: the “polymerase ribozyme fitness (log ratio)” value is -5.51. As for A26C G61U U78C C80U A83G U116G, the “polymerase ribozyme fitness (log ratio)” value is -6.77.

Consider A26G C40U G63C U81C U130A, for which the “polymerase ribozyme fitness (log ratio)” value is -4.66. Regarding G23A C97U A121U, the “polymerase ribozyme fitness (log ratio)” value was -4.57. To A26G C40U G63C C79A C101U G117A belongs -5.91; to A24G A26G A90C C115U, -2.12. In the case of A26U G71C U131A it was -4.6; in that of A26U A66G, -4.28; in that of C22U A50G C104U, -3.86. Consider A27U C28U, for which the “polymerase ribozyme fitness (log ratio)” value is -2.59. To A27G U106G U112G belongs -1.51. In the case of A26G G61A C82A U112A U131C it was -0.172; in that of A26U U130A, -3.88; in that of A27C C56G U78C C80U U81A, -3.58. To A26G G36U C82G belongs -4.05; to G23A C73G, -3.9; to G23A C73A, -5.86.

With G23C G60A G77C C98G A119U, the “polymerase ribozyme fitness (log ratio)” value is -7.44. In the case of A24G A43G it was -3.13; in that of A27G C49G C64U, -2.51. For A26U U96A U116G A121G, the “polymerase ribozyme fitness (log ratio)” value was -3.67. In the case of A27G G48U it was -2.47. Regarding A26G G60C C86G, the “polymerase ribozyme fitness (log ratio)” value is -3.98. To C22U C72G belongs -4.14.

Regarding A24U C28G A84C G120U, the “polymerase ribozyme fitness (log ratio)” value is -7.73. Turning to C22U A37U G69U U78C G110U C115A C124G, the “polymerase ribozyme fitness (log ratio)” value was -3.86. To A24G G60A C80U C88A belongs -4.67; to G25A C40U G69C G93C C101U C104G C115U A118G, -7.63. In the case of C22U A37G G61C C64A U112C U126G G128A, the “polymerase ribozyme fitness (log ratio)” value is -6.8.

For the variant A27C G60A, the “polymerase ribozyme fitness (log ratio)” value was -3.37. For the variant C22U A74U C101A, the “polymerase ribozyme fitness (log ratio)” value is -5.04.

Turning to A24G G69C C85G, the “polymerase ribozyme fitness (log ratio)” value was -4.96. Regarding A27U C56G, the “polymerase ribozyme fitness (log ratio)” value is -4.07. A24G C49G A121C: the “polymerase ribozyme fitness (log ratio)” value was -0.875.

A27G C34U: the “polymerase ribozyme fitness (log ratio)” value is -4.85.

Regarding A27G G128C, the “polymerase ribozyme fitness (log ratio)” value was -4.95. To A27C G69U C73A belongs -1.89; to C22U A90G C101A C114A, -5.96; to A26G C80U G120U, -3.13.

In the case of A27G G69A, the “polymerase ribozyme fitness (log ratio)” value is -2.88.

A27G C56A: the “polymerase ribozyme fitness (log ratio)” value was -2.09. In the case of C22U C64U G77A it was -4.03; in that of A24G U54G G57C C72U C73G C124U, -3.92; in that of A26C G39C C104U U106A G120A, -5.96. Regarding A26U A83C, the “polymerase ribozyme fitness (log ratio)” value was -3.24. In the case of A27C C53G it was -2.64; in that of C22U U96A, -4.62; in that of G25A C56A, -5.23. To G25C G61C U92G G117U belongs -6.32; to A26U U54C C72U U133A, -2.18; to A24G A27G G120A, -3.91. In the case of A26U G48U, the “polymerase ribozyme fitness (log ratio)” value is -3.85. To C22U G36A C76G belongs -5.14; to A26C G39U C124G, -4.33; to C22G U132A, -3.21. In the case of A27C G71A, the “polymerase ribozyme fitness (log ratio)” value is -4.

Take A26U G39C G47A C82A A118U: the “polymerase ribozyme fitness (log ratio)” value is -4.78. To A26G A29G C72G U78A A118U belongs -3.07; to C22U G39U G60C C76U U78A C115G G127C, -6.22.

As for A26G G61C C86U, the “polymerase ribozyme fitness (log ratio)” value was -4.37.

Turning to A26G G45A U78G C124U U129G, the “polymerase ribozyme fitness (log ratio)” value is -4.5. To C22U C114A belongs -4.76; to A24U U112A, -4.52.

On to A26U G69U C79G, for which the “polymerase ribozyme fitness (log ratio)” value is -3.29. In the case of C22U C53G it was -4.85; in that of C22U C53A, -4.52. Regarding A27G U54C C80U A84U, the “polymerase ribozyme fitness (log ratio)” value was -2.61.

Regarding G23A A121U, the “polymerase ribozyme fitness (log ratio)” value is -2.19. In the case of A26U G93U it was -3.09; in that of A26U C56G, -3.48; in that of A26U A95G, -2.46. A27G C62G A83G C86U: the “polymerase ribozyme fitness (log ratio)” value was -5.4. To A27C C89U belongs -4.35.

Turning to A27G C98A, the “polymerase ribozyme fitness (log ratio)” value is -7.76. In the case of A27G C49G G63U C89G G117C it was -7.01; in that of A26G G71A A84C C89U G93C C114U, -6.05; in that of A24G A27G, -4.03.

For the variant C22U U92G C94A C104G U109G G122A C123A U125A, the “polymerase ribozyme fitness (log ratio)” value is -7.36. As to A26G C70G, the “polymerase ribozyme fitness (log ratio)” value is -3.51. In the case of A24G G51U G69A G113C G120U it was -6.67. In the case of A24U U30G G63U C102G, the “polymerase ribozyme fitness (log ratio)” value is -5.42.

With A26U C49U, the “polymerase ribozyme fitness (log ratio)” value is -3.62. As for A26C G120C G127A, the “polymerase ribozyme fitness (log ratio)” value is -5.53. In the case of A26U C62U it was -3.59.

For the variant A26U C53U, the “polymerase ribozyme fitness (log ratio)” value is -3.26. On to A26U C115U, for which the “polymerase ribozyme fitness (log ratio)” value was -4.53. In the case of A24G C34A C53U U87G U132A it was -4.54.

Consider C22U U130G, for which the “polymerase ribozyme fitness (log ratio)” value was -3.78. For the variant G23A A50U, the “polymerase ribozyme fitness (log ratio)” value was -5.56. To A24G A41C A46U C53A U125A belongs -4.79; to A26C G117U A119U, -7.54; to A26U G51A C64U A91U G120A C124G, -6.85. In the case of A26U C62U U129A it was -5.15. To C22U G57A G63U belongs -5.87; to G23U C34A G47A C53G G110C U129G, -7.48; to A27U A29C G35C A68U U109G A119G G127A, -6.64. Regarding A27G U78C, the “polymerase ribozyme fitness (log ratio)” value was -2.35. With G25C C53A, the “polymerase ribozyme fitness (log ratio)” value was -6.51. To A24U C124A belongs -3.28; to A27G G52A C79U, -2.15. A24G U109C: the “polymerase ribozyme fitness (log ratio)” value is -5.04. In the case of A26G C28G C104U, the “polymerase ribozyme fitness (log ratio)” value is -2.85. As to A26U G42C C62U C70A C88U G117U, the “polymerase ribozyme fitness (log ratio)” value is -6.33. To G25A C73A belongs -6.13; to C22U A46C, -3.65; to A24G G120U, -1.65. For the variant A27C C49G, the “polymerase ribozyme fitness (log ratio)” value was -4.07.

Take A27C G51A C76G: the “polymerase ribozyme fitness (log ratio)” value is -5.75.

In the case of G23U G42U U54G C64G G93C G117C, the “polymerase ribozyme fitness (log ratio)” value was -6.49. In the case of A26U A37C G77A C124G it was -1.36; in that of A27G A46U G57C U81A A83C C104A G117C G122A, -7.94.

For A24G C115U, the “polymerase ribozyme fitness (log ratio)” value is -2.59. With G25U A46G, the “polymerase ribozyme fitness (log ratio)” value was -6.02. Consider C22U U55G C72A C79A C123A, for which the “polymerase ribozyme fitness (log ratio)” value is -6.59.

For A26U C56U C72U, the “polymerase ribozyme fitness (log ratio)” value is -3.04. In the case of A27C G44C C73G it was -5.57; in that of A27G C115A, -3.25; in that of A24G C40U G71A C114A, -5.13. As to G25A G47A C72G C76U U87G C114G, the “polymerase ribozyme fitness (log ratio)” value is -5.41. In the case of G25C C70A it was -7.32; in that of G23A C56U G58C C70U C104G G122A, -7.86; in that of C22U G42U G58A C70U, -5.05. As to A24C C31G U32G C62U C114G, the “polymerase ribozyme fitness (log ratio)” value was -8.07. To A27G A50G C72U U81A belongs -2; to A27U C28G G110C, -4; to A27U C70A C115G U130G, -6.2. On to G23A G45A, for which the “polymerase ribozyme fitness (log ratio)” value was -5.16. As to A27G G71A C72U A95G, the “polymerase ribozyme fitness (log ratio)” value was -4. To A24C G61A belongs -6.26; to G25A C28A C31G G63U A74G C99U, -7.56; to A27C C104U, -3.21.

In the case of G23U A26G G63U C82G U133A, the “polymerase ribozyme fitness (log ratio)” value was -7.09. In the case of G23A G63C it was -3.02; in that of C22U A95G, -3.7. In the case of A26G A50G C56G A74G C82G it was -4.41. In the case of A26G C89G C102U U112A G120A it was -5.43; in that of C22U A84C, -4.07. With A26G U78C U106A G113U C115A, the “polymerase ribozyme fitness (log ratio)” value is -5.3. Turning to C22U G120A, the “polymerase ribozyme fitness (log ratio)” value is -3.35. In the case of G23C G69C C94G U96A G113U G120C it was -7.12; in that of G25U C56A, -4.45; in that of A27U C62U, -3.58. In the case of A26U C89A it was -6.44; in that of G25U G110U, -5.41; in that of A27G U129C, -3.02. In the case of A26G C34U C85U C124G, the “polymerase ribozyme fitness (log ratio)” value was -2.34. In the case of A24G C49G it was -1.9; in that of A27G C70U C80A, -4.47.

Take A26U G122A G127U U133G: the “polymerase ribozyme fitness (log ratio)” value was -4.8. On to C22U C56U C114U, for which the “polymerase ribozyme fitness (log ratio)” value is -4.27. Turning to A26G G71U C88G G120C, the “polymerase ribozyme fitness (log ratio)” value is -3.91. With A27U C53A C72U, the “polymerase ribozyme fitness (log ratio)” value was -3.4.
